Test results published in patent publication US20090238821A1.

Legend:
Amyloid-beta 1-42 = Amyloid-beta 1-42 (UniProt P05067); experiment: BIAcore 2000, antibody captured by rabbit anti-mouse, peptide flowed
Amyloid-beta 1-40 = Amyloid-beta 1-40 (UniProt P05067); experiment: as above
human Aβ peptide (human) [1] = target: human Aβ peptide (human) (UniProt P05067); experiment: plasma of APP V717F mice given 200 or 600 µg Mab 266 i.v., RIA (in vivo)
[2] = target: β-amyloid peptide (1-42) conjugated to BSA (UniProt P05067); experiment: competitive ELISA on Aβ1-42-BSA, competitor of biotinylated Mu266 (0.3 µg/ml), first set
human Aβ peptide (human) [3] = target: human Aβ peptide (human) (UniProt P05067); experiment: plasma of APP V717F mice given 1 mg Mab 266 i.v., non-denaturing gel, blot with biotin-3D6 and 125I-streptavidin against Aβ40/266 standards (in vivo)
human Aβ peptide (human) [4] = target: human Aβ peptide (human) (UniProt P05067); experiment: dialysis chamber, 1 mL human CSF against 1 µg Mab 266, 100 kD cutoff, 3 hours, ELISA
human Aβ peptide (human) [5] = target: human Aβ peptide (human) (UniProt P05067); experiment: dialysis chamber, 1 mL human CSF against 1 µg Mab 266, 25 kD cutoff, 3 hours, ELISA
[6] = target: β-amyloid peptide (1-42) conjugated to BSA (UniProt P05067); experiment: competitive ELISA on Aβ1-42-BSA, competitor of biotinylated Mu266 (0.3 µg/ml), second set
human Aβ peptide (human) [7] = target: human Aβ peptide (human) (UniProt P05067); experiment: BIAcore 2000, 266 against 4G8

Row | Substance | Kd (Amyloid-beta 1-42) | Kd (Amyloid-beta 1-40) | concentration of Aβ bound to Mab 266 in plasma (human Aβ peptide (human) [1]) | IC50 [2] | amount of Aβ peptide bound to Mab 266 in plasma (human Aβ peptide (human) [3]) | percent of Aβ peptide drawn across the membrane (human Aβ peptide (human) [4]) | percent of Aβ peptide sequestered in the bottom chamber (human Aβ peptide (human) [5]) | IC50 [6] | fold difference in affinity between 266 and 4G8 (human Aβ peptide (human) [7])
1 | Mab 4G8 (antibody) | 24 nM | 23 nM | – | – | – | – | – | – | –
2 | mouse monoclonal antibody 266 | 4000 nM | 4000 nM | > 100 ng/mL | 4.7 µg/mL | 100 ng/mL | 100% | 50% | 3.87 µg/mL | 6000 fold
